Measurements reported in paper PMC6881174.
Where “and” joins values, the source holds several entries; their conditions need not be identical. Equal entries are not always repeated.

Biological target: TRIM5α from African green monkey, L81F (African green monkey)
Assay: cryo-EM structure

Substance: TRIM5α from African green monkey, L81F (natural protein)
- stoichiometry N: 3 and 2
